Substrate in the series: O=P(O)(O)OP(=O)(O)O
As to the kind of experiment: purified protein. Particulars: Mg2+ (MgPPi complex is the true substrate; free PPi inhibits).

One may read the Km as the substrate concentration at which the rate is half of its maximum.

B1: UDP-glucose pyrophosphorylase (UGPase) (Hordeum vulgare) (protein)
chain: MAAAAVAADSKIDGLRDAVAKLGEISENEKAGFISLVSRYLSGEAEQIEWSKIQTPTDEVVVPYDTLAPPPEDLDAMKALLDKLVVLKLNGGLGTTMGCTGPKSVIEVRNGFTFLDLIVIQIESLNKKYGCSVPLLLMNSFNTHDDTQKIVEKYSNSNIEIHTFNQSQYPRIVTEDFLPLPSKGQTGKDGWYPPGHGDVFPSLNNSGKLDTLLSQGKEYVFVANSDNLGAIVDIKILNHLIHNQNEYCMEVTPKTLADVKGGTLISYEGRVQLLEIAQVPDEHVDEFKSIEKFKIFNTNNLWVNLKAIKRLVDAEALKMEIIPNPKEVDGVKVLQLETAAGAAIRFFEKAIGINVPRSRFLPVKATSDLLLVQSDLYTLVDGYVIRNPARVKPSNPSIELGPEFKKVANFLARFKSIPSIVELDSLKVSGDVSFGSGVVLKGNVTIAAKAGVKLEIPDGAVLENKDINGPEDI
B1: the Km came to 60 µM.

For the origin of these results see publication PMC9230926.
